Data: patent US20160075778A1 (Regeneron, published 2016)

Tests used:
human glucagon [1] = molecular target: T1, human glucagon (human); experiment: SPR Biacore 4000, antibody captured by anti-human Fc, GCG injected, 25 C
T1 construct: Bought peptide (Phoenix Pharmaceuticals, #028-02); 29 residue hormone; also called GCG; human GCG
Experimental: (§1) Experiments were performed at 25° C. and 37° C.
(§2) Kinetic association (kₐ) and dissociation (kd) rate constants were determined by processing and fitting the data to a 1:1 binding model using Scrubber 2.0c curve fitting software. Binding dissociation equilibrium constants (KD) and dissociative half-lives (t½) were calculated from the kinetic rate constants as: […]

human glucagon [2] = molecular target: T1, human glucagon; experiment: SPR Biacore 4000, antibody captured by anti-human Fc, GCG injected, 37 C
Experimental: as §1, §2

human glucagon [3] = molecular target: T1, human glucagon; experiment: cell-based or functional assay

T1 sequence (peptide, as listed by the source): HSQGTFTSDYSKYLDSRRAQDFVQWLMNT

Kd (human glucagon [1]) | koff (human glucagon [1]) | kon (human glucagon [1]) | t½ (human glucagon [1]) | Kd (human glucagon [2]) | koff (human glucagon [2]) | kon (human glucagon [2]) | t½ (human glucagon [2]) | IC50, inhibition of GCG activation of HEK293/CRE-luc/hGCGR cells (luciferase reporter, 40 pM GCG) (human glucagon [3]) | Binder
0.715 nM | 0.00178 s⁻¹ | 2.5e+06 M⁻¹ s⁻¹ | 6 min | 4.78 nM | 0.0236 s⁻¹ | 4.9e+06 M⁻¹ s⁻¹ | 0.5 min | 9.1e-10 M | H1H059P (antibody, V domains shown, The antibody was captured by an anti-human Fc antibody in SPR) VH: QVQLVESGGGVVQPGRSLRLSCAASGFAFSNYGMHWVRQAPGKGLEWVTFISYDGSNKYYADSVKGRFTISRDNSKNTLYLQVNSLRAEDTAVYYCAKEAVLAALFDYWGQGTLVTVSS VL: not shown
0.16 nM | 0.00062 s⁻¹ | 3.89e+06 M⁻¹ s⁻¹ | 19 min | 0.555 nM | 0.00274 s⁻¹ | 4.94e+06 M⁻¹ s⁻¹ | 4 min | 1.8e-11 M | H4H10238P (antibody, V domains shown) VH: QVQLVESGGGVVQPGRSLRLSCAASGFTFSSYGMHWVRQAPVKGLEWVAFISNDKSNKYYADSLKGRFTISRDNSKNTLYLQMNSLTAEDTAVYYCAKESILAALFDYWGQGTLVTVSS VL: not shown
0.242 nM | 0.000746 s⁻¹ | 3.08e+06 M⁻¹ s⁻¹ | 15 min | 2.08 nM | 0.0088 s⁻¹ | 4.25e+06 M⁻¹ s⁻¹ | 1 min | 2.5e-10 M | H4H10236P (antibody, V domains shown) VH: QVQLVESGGGVVQPGRSLRLSCAASGFTFSSYGMHWVRQTPGKGLEWVAFISYDGNNKYYADSVKGRFTISRDNSKNTLFLQMNSLRAEDTAVYYCAKESILAALFDYWGQGTLVTVSS VL: not shown
0.0927 nM | 0.000685 s⁻¹ | 7.39e+06 M⁻¹ s⁻¹ | 17 min | 1.01 nM | 0.00245 s⁻¹ | 2.4e+06 M⁻¹ s⁻¹ | 5 min | 7.3e-12 M | H4H10231P (antibody, V domains shown) VH: QVQLVESGGGVVQPGRSLRLSCAASGFTFSTFGMHWVRQAPVKGLEWVAFISNDKNNKFYADSVKGRFTISRDNSRDTLYLQMNSLTPEDTAVYYCAKESILAALFDYWGQGTLVTVSS VL: not shown
0.0753 nM | 0.000582 s⁻¹ | 7.72e+06 M⁻¹ s⁻¹ | 20 min | 0.314 nM | 0.00248 s⁻¹ | 7.9e+06 M⁻¹ s⁻¹ | 5 min | 1.8e-11 M | H4H10256P (antibody, V domains shown) VH: QVQLVESGGGVVQPGRSLRLSCAASGFTFRTYGMHWVRQAPVKGLEWVAFISKDGSDKYYVDSVKGRFTISRDNSKNTLFLQMNSLTAEDTAVYYCAKESILAALFDYWGQGTLVTVSS VL: not shown
0.153 nM | 0.000732 s⁻¹ | 4.8e+06 M⁻¹ s⁻¹ | 16 min | 0.559 nM | 0.00378 s⁻¹ | 6.77e+06 M⁻¹ s⁻¹ | 3 min | 2.2e-11 M | H4H10270P (antibody, V domains shown) VH: QVQLVESGGGVVQPGRSLRLSCAASGFTFSSYGMHWVRQAPVKGLEWVAFISNDKSNKYYADSVKGRFTISRDNSKNTLYLQMNSLTAEDTAVYYCAKESILAALFDSWGQGTLVTVSS VL: DIVMTQSPDSLAVSLGERATINCKSSQSVLYSSNNKNYLAWYQQKPRQPPKLLIYWASIRESGVPDRFSGSGSGADFTLTISSLQAADVAVYYCQQFYSVPTFGQGTKLEIK
0.0578 nM | 0.000541 s⁻¹ | 9.36e+06 M⁻¹ s⁻¹ | 21 min | 0.347 nM | 0.00223 s⁻¹ | 6.4e+06 M⁻¹ s⁻¹ | 5 min | 9.5e-12 M | H4H10223P (antibody, V domains shown, Kappa light chain variable region) VH: QVQLVESGGGVVQPGRSLRLSCAASGFTFNTYGMHWVRQAPVKGLEWVAFISNDKSNTFYADSVKGRFTISRDNSKNTLFLEMNSLTAEDTAVYYCAKESILAALFDYWGQGTLVTVSS VL: not shown
0.283 nM | 0.000939 s⁻¹ | 3.32e+06 M⁻¹ s⁻¹ | 12 min | 1.27 nM | 0.00708 s⁻¹ | 5.58e+06 M⁻¹ s⁻¹ | 2 min | 3.4e-11 M | H4H10250P (antibody, V domains shown) VH: QVQLVESGGGVVQPGRSLRLSCAASGFTFSSYGMHWVRQAPVKGLEWVAFISFDGSNKYYTDSVKGRFTISRDNSKNTLYLQMNSLTAEDTAIYYCAKESILAALFDYWGQGTLVTVSS VL: DIVMTQSPDSLAVSLGERATINCKSSQSVLYSSNNKNYLAWYQQKPRQPPNLLIYWASIRESGVPDRFSGSGSGTDFTLTISSLQAEDVAFYYCQQFYSIPTFGQGTKLEIK
0.208 nM | 0.00103 s⁻¹ | 4.96e+06 M⁻¹ s⁻¹ | 11 min | 0.907 nM | 0.00683 s⁻¹ | 7.53e+06 M⁻¹ s⁻¹ | 2 min | 3.4e-11 M | H4H10237P (antibody, V domains shown) VH: QVQLVESGGGVVQPGRSLRLSCAASGFTFSSYGMHWVRQAPVKGLEWVAFISYDGSNKYYADSVKGRFTISRDNSKNTLYLQMNSLTAEDTAVYYCAKESILAALFDYWGQGTLVTVSS VL: not shown
0.0724 nM | 0.000231 s⁻¹ | 3.19e+06 M⁻¹ s⁻¹ | 50 min | 0.318 nM | 0.00147 s⁻¹ | 4.61e+06 M⁻¹ s⁻¹ | 8 min | 2.3e-11 M | H4H10232P (antibody, V domains shown) VH: QVQLVESGGGVVQPGRSLRLSCVASGFTFRNYDMHWVRQAPGKGLEWVAVTSSDGLNKFYSDSVKGRFTISRDNSKNTLSLQITGLRAEDTAVYYCAKESILAALFDYWGQGTLVTVSS VL: not shown
